B1: anti-TF antibody 54E conjugated to MC-vc-PAB-MMAE (antibody, IgG1, V domains shown)
VH: QVQLVQSGAEVKKPGASVKVSCKASGYTFANYYMHWVRQAPGQGLEWMGIINPSGGITVYAQKFQGRVTMTRDTSTSTVYMELSSLRSEDTAVYYCARGGSKVAALAFDIWGQGTMVTVSS
VL: DIQMTQSPSSLSASVGDRVTITCQASQDISNSLNWYQQKPGKAPKLLIYDASNLETGVPSRFSGSRSGTDFTFTISSLQPEDIATYYCQQYNFHPLTFGGGTKVEIK
modifications: MC-vc-PAB-MMAE on cysteines of the partially reduced antibody (chain and positions not stated), DAR 3-4
notes: Antibody-drug conjugate (primary ADC) of the IgG1 antibody; also called 54E ADC
B2: anti-TF antibody 25A (antibody, human IgG1, V domains shown)
VH: QVQLVQSGAEVKKPGASVKVSCKASGYTFDVYGISWVRQAPGQGLEWMGWIAPYNGNTNYAQKLQGRVTMTTDTSTSTAYMELRSLRSDDTAVYYCARDAGTYSPFGYGMDVWGQGTTVTVSS
VL: DIQMTQSPSTLSASVGDRVTITCRASQSISSWLAWYQQKPGKAPKLLIYKASSLESGVPSRFSGSGSGTEFTLTISSLQPDDFATYYCQQFQSLPPFTFGGGTKVEIK
notes: Human IgG1
B3: 25A-vc-MMAE (antibody, IgG1, V domains shown)
VH: QVQLVQSGAEVKKPGASVKVSCKASGYTFDVYGISWVRQAPGQGLEWMGWIAPYNGNTNYAQKLQGRVTMTTDTSTSTAYMELRSLRSDDTAVYYCARDAGTYSPFGYGMDVWGQGTTVTVSS
VL: DIQMTQSPSTLSASVGDRVTITCRASQSISSWLAWYQQKPGKAPKLLIYKASSLESGVPSRFSGSGSGTEFTLTISSLQPDDFATYYCQQFQSLPPFTFGGGTKVEIK
modifications: MC-vc-PAB-MMAE on cysteines of the partially reduced antibody (chain and positions not stated), DAR 3-4
notes: Antibody-drug conjugate (primary ADC) of the IgG1 antibody; also called 25A ADC; 25A conjugated to MC-vc-PAB-MMAE
B4: 25A3-vc-MMAE (antibody, IgG1, V domains shown)
VH: QVQLVQSGAEVKKPGASVKVSCKASGYTFDVYGISWVRQAPGQGLEWMGWIAPYSGNTNYAQKLQGRVTMTTDTSTSTAYMELRSLRSDDTAVYYCARDAGTYSPFGYGMDVWGQGTTVTVSS
VL: DIQMTQSPSTLSASVGDRVTITCQASQSINNWLAWYQQKPGKAPKLLIYKAYNLESGVPSRFSGSGSGTEFTLTISSLQPDDFATYYCQLFQSLPPFTFGGGTKVEIK
modifications: MC-vc-PAB-MMAE on cysteines of the partially reduced antibody (chain and positions not stated), DAR 3-4
notes: Antibody-drug conjugate (primary ADC) of the IgG1 antibody; also called 25A3 ADC; 25A3 MMAE ADC
B5: anti-TF antibody 25G1 conjugated to MC-vc-PAB-MMAE (antibody, IgG1, V domains shown)
VH: QVQLVQSGAEVKKPGASVKVSCKASGYTFRSYGISWVRQAPGQGLEWMGWVAPYSGNTNYAQKLQGRVTMTTDTSTSTAYMELRSLRSDDTAVYYCARDAGTYSPYGYGMDVWGQGTTVTVSS
VL: DIQMTQSPSTLSASVGDRVTITCRASHSIDSWLAWYQQKPGKAPKLLIYKASYLESGVPSRFSGSGSGTEFTLTISSLQPDDFATYYCQLFQSLPPFTFGGGTKVEIK
modifications: MC-vc-PAB-MMAE on cysteines of the partially reduced antibody (chain and positions not stated), DAR 3-4
notes: Antibody-drug conjugate (primary ADC) of the IgG1 antibody; also called 25G1 ADC
B6: anti-TF antibody 25G1 (antibody, human IgG1, V domains shown)
VH: QVQLVQSGAEVKKPGASVKVSCKASGYTFRSYGISWVRQAPGQGLEWMGWVAPYSGNTNYAQKLQGRVTMTTDTSTSTAYMELRSLRSDDTAVYYCARDAGTYSPYGYGMDVWGQGTTVTVSS
VL: DIQMTQSPSTLSASVGDRVTITCRASHSIDSWLAWYQQKPGKAPKLLIYKASYLESGVPSRFSGSGSGTEFTLTISSLQPDDFATYYCQLFQSLPPFTFGGGTKVEIK
notes: Human IgG1
B7: anti-TF antibody 29E conjugated to MC-vc-PAB-MMAE (antibody, IgG1, V domains shown)
VH: QVQLVESGGGVVQPGRSLRLSCAASGFTFRSYGMHWVRQAPGKGLEWVAVITYDGINKYYADSVEGRFTISRDNSKNTLYLQMNSLRAEDTAVYYCARDGVYYGVYDYWGQGTLVTVSS
VL: not shown
modifications: MC-vc-PAB-MMAE on cysteines of the partially reduced antibody (chain and positions not stated), DAR 3-4
notes: Antibody-drug conjugate (primary ADC) of the IgG1 antibody; also called 29E ADC
B8: anti-TF antibody 43D7 (antibody, human IgG1, V domains shown)
VH: QVQLQQWGAGLLKPSETLSLTCAVYGGSLSGYYWSWIRQPPGKGLEWIGEIGASGSTRYNPSLKSRVTISVDTSKNQFSLKLSSVTAADTAVYYCARDTPYYYEGGYYYYMDVWGKGTTVTVSS
VL: EIVLTQSPGTLSLSPGERATLSCRASDSVDSSYLAWYQQKPGQAPRLLIYGAFSRANGIPDRFSGSGSGTDFTLTISRLEPEDFAVYYCQQAGVVPYTFGGGTKVEIK
notes: Human IgG1
B9: anti-TF antibody 43D8 (antibody, human IgG1, V domains shown)
VH: QVQLQQWGAGLLKPSETLSLTCAVYGGSLSGYYWSWIRQPPGKGLEWIGEIGASGSTRYNPSLKSRVTISVDTSKNQFSLKLSSVTAADTAVYYCARDTPYYYEGGYYYYMDVWGKGTTVTVSS
VL: EIVLTQSPGTLSLSPGERATLSCRASQSVSSSFLAWYQQKPGQAPRLLIYGAYSRATGIPDRFSGSGSGTDFTLTISRLEPEDFAVYYCQQAGVVPYTFGGGTKVEIK
notes: Human IgG1
B10: anti-TF antibody 39A conjugated to MC-vc-PAB-MMAE (antibody, IgG1, V domains shown)
VH: QVQLVQSGAEVKKPGSSVKVSCKASGGTFSSNAIGWVRQAPGQGLEWMGSIIPIIGFANYAQKFQGRVTITADESTSTAYMELSSLRSEDTAVYYCARDSGYYYGASSFGMDVWGQGTTVTVSS
VL: EIVMTQSPATLSVSPGERATLSCRASQSVSSNLAWYQQKPGQAPRLLIYGASTRATGIPARFSGSGSGTEFTLTISSLQSEDFAVYYCEQYNNLPLTFGGGTKVEIK
modifications: MC-vc-PAB-MMAE on cysteines of the partially reduced antibody (chain and positions not stated), DAR 3-4
notes: Antibody-drug conjugate (primary ADC) of the IgG1 antibody; also called 39A ADC

Legend:
[1] = molecular target: T1, human Tissue Factor (hTF) (human, UniProt P13726 33-295); test: cell-based or functional assay
[2] = molecular target: T1, human Tissue Factor (hTF); test: cell-based or functional assay; remark: listed apart in the source
[3] = molecular target: T2, human Tissue Factor on human TF-positive cells (human, UniProt P13726 33-295); test: flow cytometry, titration of the MC-vc-PAB-MMAE ADC on HCT-116 cells (human TF), 4-parameter fit of MFI
T2 construct: also called hTF; CD142

[4] = molecular target: T3, pig TF ECD-His (TF-His) protein (pig (Sus scrofa)); test: Biacore; antibody captured by anti-human IgG on CM5 chip, titration of pig TF-His, 1:1 model
T3 construct: also called pig TF-His; pTF
T3 chain: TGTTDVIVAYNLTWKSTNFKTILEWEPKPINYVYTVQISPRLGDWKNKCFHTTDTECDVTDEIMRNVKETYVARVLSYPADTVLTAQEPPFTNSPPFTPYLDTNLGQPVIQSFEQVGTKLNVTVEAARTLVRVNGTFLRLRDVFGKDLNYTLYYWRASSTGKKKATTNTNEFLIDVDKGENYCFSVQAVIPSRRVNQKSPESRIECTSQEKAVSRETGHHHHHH
Protocol: The ability of certain antibodies was tested for binding to pig TF. For pig TF Biacore-based measurements, a given anti-TF antibody was captured by an anti-human IgG antibody covalently coupled to a CM5 chip (GE Healthcare Bio-Sciences). Association between the anti-TF antibodies and a five-point three-fold titration of pig TF-His starting at 100 nM was measured for 180 to 240 sec. Subsequently, dissociation between the anti-TF antibody and TF-His was measured for 1800 sec. Kinetic data was analyzed and fitted globally using a 1:1 binding model.

[5] = molecular target: T4, rabbit TF ECD-His (TF-His) protein (rabbit (Oryctolagus cuniculus), UniProt P24055 33-250); test: Biacore; antibody captured by anti-human IgG on CM5 chip, titration of rabbit TF-His, 1:1 model
T4 construct: also called rabbit TF-His
T4 sequence (P24055 other isoform, or with tags, fused parts or gaps): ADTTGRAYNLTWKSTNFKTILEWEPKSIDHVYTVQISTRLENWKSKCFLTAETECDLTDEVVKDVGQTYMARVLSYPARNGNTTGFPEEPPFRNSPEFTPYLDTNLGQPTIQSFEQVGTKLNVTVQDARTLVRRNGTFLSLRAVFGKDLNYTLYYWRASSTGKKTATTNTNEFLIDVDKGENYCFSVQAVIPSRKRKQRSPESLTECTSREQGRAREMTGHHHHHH
Protocol: The ability of certain antibodies was tested for binding to rabbit TF. For rabbit TF Biacore-based measurements, a given anti-TF antibody was captured by an anti-human IgG antibody covalently coupled to a CM5 chip (GE Healthcare Bio-Sciences). Association between the anti-TF antibodies and a five-point three-fold titration of rabbit TF-His starting at 100 nM was measured for 180 to 240 sec. Subsequently, dissociation between the anti-TF antibody and TF-His was measured for 1800 sec. Kinetic data was analyzed and fitted globally using a 1:1 binding model.

Row | Binder | IC50, cell viability of A431 cells, Primary ADC, 4 hr, followed by washout (FIG. 20B) [1] [pM] | IC50, cell viability of A431 cells, Primary ADC, 4 hr, followed by washout, absence of FVIIa (FIG. 21A) [1] [pM] | IC50, cell viability of A431 cells, Primary ADC, Continuous (FIG. 20A) [2] [pM] | EC50 [3] [pM] | Kd [4] [pM] | Kd [5] [pM] | IC50, cell viability of A431 cells, Secondary ADC (antibody with anti-human Fc Fab:MMAF), Continuous (FIG. 18B) [2] [pM] | IC50, cell viability of HPAF-II cells, Primary ADC, Continuous (FIG. 22E) [2] [pM] | IC50, cell viability of MDA-MB-231 cells, Primary ADC, Continuous (FIG. 22D) [2] [pM]
1 | B1 | 260 | 200 | 70 | 330 |  |  |  |  | 
2 | B2 |  |  |  |  | 18700 | 50500 | 110 |  | 
3 | B3 | 350 | 180 | 90 | 340 |  |  |  | 60 | 140
4 | B4 | 190 | 120 | 70 | 170 |  |  |  | 50 | 110
5 | B5 | 190 | 100 | 60 | 170 |  |  |  | 40 | 90
6 | B6 |  |  |  |  | 2600 | 3600 | 80 |  | 
7 | B7 | 200 | 130 | 60 | 250 |  |  |  | 40 | 70
8 | B8 |  |  |  |  | 8800 | 6800 | 100 |  | 
9 | B9 |  |  |  |  | 19200 | 7700 |  |  | 
10 | B10 | 120 | 90 | 50 | 100 |  |  |  | 40 | 50

Reference: patent US20250361322A1 (ICONIC THERAPEUTICS, published 2025)
